This note sets out measurements from IntAct's records for PubMed 21633354.

The target in this assay is T1, cnd2_schpo cnd2 (UniProt Q9Y7R3).
T1 sequence: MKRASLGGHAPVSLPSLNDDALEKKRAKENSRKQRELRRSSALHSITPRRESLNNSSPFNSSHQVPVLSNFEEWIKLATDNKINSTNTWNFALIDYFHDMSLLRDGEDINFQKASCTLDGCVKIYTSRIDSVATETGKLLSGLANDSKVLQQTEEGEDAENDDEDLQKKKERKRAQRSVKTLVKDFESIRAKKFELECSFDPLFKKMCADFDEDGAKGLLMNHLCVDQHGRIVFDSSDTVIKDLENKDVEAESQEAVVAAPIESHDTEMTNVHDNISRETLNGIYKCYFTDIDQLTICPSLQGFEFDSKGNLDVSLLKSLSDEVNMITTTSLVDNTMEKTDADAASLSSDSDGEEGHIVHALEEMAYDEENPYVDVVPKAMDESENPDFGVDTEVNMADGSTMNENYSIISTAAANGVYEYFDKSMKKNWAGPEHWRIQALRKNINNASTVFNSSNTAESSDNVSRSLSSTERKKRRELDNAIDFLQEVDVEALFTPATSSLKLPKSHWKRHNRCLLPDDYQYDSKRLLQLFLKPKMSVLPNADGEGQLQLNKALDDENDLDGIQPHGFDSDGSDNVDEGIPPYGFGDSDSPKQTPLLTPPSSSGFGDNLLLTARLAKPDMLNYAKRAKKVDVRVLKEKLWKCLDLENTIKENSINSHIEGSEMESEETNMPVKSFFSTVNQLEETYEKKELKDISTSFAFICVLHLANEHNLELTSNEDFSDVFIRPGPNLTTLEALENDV

Turning to “Histone H2A-beta (Schizosaccharomyces pombe (strain ATCC 38366 / 972)) (from UniProt P04910) K5A;K9A;K14A;R19A;K22A”, the “effect of a mutation on the interaction” value is recorded as “disrupting interaction strength”.

Regarding “Histone H2A-beta (Schizosaccharomyces pombe (strain ATCC 38366 / 972)) (from UniProt P04910) K14A;R19A;K22A”, the “effect of a mutation on the interaction” value is recorded as “disrupting interaction strength”.

For the substance “Histone H2A-beta (Schizosaccharomyces pombe (strain ATCC 38366 / 972)) (from UniProt P04910) R19A”, the “effect of a mutation on the interaction” value is reported as “decreasing interaction”.
